According to the supplement of paper PMC11136658:

Tested on: peptide library, one residue held at a place counted from the Y acceptor
Assay: relative phosphorylation of the sub-library (ratio to the mean residue at this position); higher = residue favoured
Procedure, shortened: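 Each value expresses phosphorylation relative to the mean randomized residue. Purified recombinant kinases acted for 90 min in 384-well plates on biotinylated Tyr-centred peptide library mixtures, with one residue fixed at one position from −5 to +5, in the presence of 50 μM ATP with γ-32P-ATP. Signals were read by phosphorimaging after capture on streptavidin membranes, then normalized per position to the sum of the 18 randomized residues (16 in the Ser/Thr-free library) and multiplied by that number.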

Chain of NTRK1, construct: aa440-end, human (P04629 440-796, looked up): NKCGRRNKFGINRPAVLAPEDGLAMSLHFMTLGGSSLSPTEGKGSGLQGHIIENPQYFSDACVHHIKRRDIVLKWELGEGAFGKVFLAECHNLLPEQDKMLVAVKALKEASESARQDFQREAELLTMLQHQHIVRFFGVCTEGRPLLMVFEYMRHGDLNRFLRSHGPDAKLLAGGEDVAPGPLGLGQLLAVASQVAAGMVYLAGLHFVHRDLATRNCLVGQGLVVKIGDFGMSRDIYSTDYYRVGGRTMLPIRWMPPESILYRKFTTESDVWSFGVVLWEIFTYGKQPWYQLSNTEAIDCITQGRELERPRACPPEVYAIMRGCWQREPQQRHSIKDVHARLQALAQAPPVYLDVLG
Chain of NTRK2, construct: aa455-end, human (Q16620 455-822, looked up): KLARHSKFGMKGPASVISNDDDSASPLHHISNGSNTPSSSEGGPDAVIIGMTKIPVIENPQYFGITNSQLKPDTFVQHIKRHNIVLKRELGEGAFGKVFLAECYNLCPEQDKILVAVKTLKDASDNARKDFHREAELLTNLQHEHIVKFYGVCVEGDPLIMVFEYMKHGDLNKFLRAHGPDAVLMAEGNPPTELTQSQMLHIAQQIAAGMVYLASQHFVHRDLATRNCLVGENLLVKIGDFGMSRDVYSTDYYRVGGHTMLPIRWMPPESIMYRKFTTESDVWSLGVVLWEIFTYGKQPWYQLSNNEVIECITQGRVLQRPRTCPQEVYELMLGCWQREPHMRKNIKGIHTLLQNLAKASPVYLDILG
Chain of YES1, construct: Full length, human (P07947 whole entry, looked up): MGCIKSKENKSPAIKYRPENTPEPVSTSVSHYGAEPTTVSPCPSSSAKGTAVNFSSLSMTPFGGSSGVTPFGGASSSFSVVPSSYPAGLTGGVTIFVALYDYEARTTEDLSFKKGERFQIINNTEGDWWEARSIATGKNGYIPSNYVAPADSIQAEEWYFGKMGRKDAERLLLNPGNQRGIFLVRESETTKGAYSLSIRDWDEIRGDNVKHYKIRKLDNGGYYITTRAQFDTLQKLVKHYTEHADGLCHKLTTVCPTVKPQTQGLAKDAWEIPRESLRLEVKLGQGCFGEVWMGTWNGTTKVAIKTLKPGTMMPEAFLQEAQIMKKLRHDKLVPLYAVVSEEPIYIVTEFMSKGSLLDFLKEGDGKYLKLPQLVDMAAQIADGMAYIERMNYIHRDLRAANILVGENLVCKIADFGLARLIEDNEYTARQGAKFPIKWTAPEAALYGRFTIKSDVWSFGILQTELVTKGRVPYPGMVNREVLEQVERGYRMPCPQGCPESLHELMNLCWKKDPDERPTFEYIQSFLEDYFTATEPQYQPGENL

NTRK1, construct: aa440-end, human (from UniProt P04629)
relative phosphorylation
Conditions | at +1 | at +2 | at +3 | at +4 | at +5 | at -1 | at -2 | at -3 | at -4 | at -5
A fixed | 1.34 | 0.684 | 0.751 | 0.76 | 0.909 | 0.676 | 0.944 | 0.792 | 1.02 | 0.882
D fixed | 0.529 | 0.79 | 0.541 | 1.4 | 1.19 | 2.24 | 1.22 | 1.3 | 1.08 | 1.17
E fixed | 0.936 | 1.28 | 0.45 | 1.52 | 1.12 | 1.07 | 1.34 | 1.5 | 1.32 | 1.03
F fixed | 1.66 | 1.26 | 1.82 | 0.952 | 1.24 | 0.966 | 0.812 | 1.12 | 1.33 | 1.04
G fixed | 0.711 | 0.438 | 0.891 | 1.25 | 1.07 | 0.578 | 1.05 | 0.955 | 1.05 | 1.08
H fixed | 0.979 | 0.731 | 0.706 | 1.09 | 0.991 | 1.42 | 0.947 | 1.15 | 0.963 | 1.04
I fixed | 1.66 | 1.28 | 2.02 | 0.897 | 0.748 | 1.32 | 0.854 | 0.777 | 0.837 | 0.946
K fixed | 0.236 | 0.577 | 0.271 | 0.658 | 0.783 | 0.273 | 0.811 | 0.691 | 0.722 | 0.782
L fixed | 1.2 | 1.2 | 1.92 | 0.734 | 0.983 | 1.17 | 1.01 | 0.794 | 0.939 | 0.93
M fixed | 1.79 | 1.4 | 1.64 | 1.04 | 1.03 | 0.884 | 1.02 | 0.979 | 0.884 | 0.997
N fixed | 0.441 | 0.952 | 0.475 | 0.899 | 1 | 2.12 | 1.25 | 1.39 | 0.93 | 1.23
P fixed | 0.267 | 0.688 | 0.885 | 1.15 | 1.42 | 0.942 | 0.936 | 0.875 | 1.12 | 0.996
Q fixed | 0.984 | 0.922 | 0.544 | 1.01 | 0.944 | 0.869 | 1.18 | 0.872 | 1.1 | 1.04
R fixed | 0.273 | 0.983 | 0.419 | 0.803 | 0.883 | 0.349 | 0.871 | 0.854 | 0.79 | 1.02
S fixed | 0.736 | 0.743 | 0.725 | 0.829 | 0.788 | 0.686 | 1.11 | 1.01 | 0.803 | 0.89
T fixed | 0.916 | 0.955 | 0.868 | 0.85 | 0.715 | 0.873 | 0.897 | 0.987 | 0.671 | 0.939
V fixed | 1.84 | 1.06 | 1.38 | 0.784 | 0.743 | 0.951 | 0.756 | 0.696 | 0.791 | 0.785
W fixed | 1.5 | 2.06 | 1.71 | 1.37 | 1.43 | 0.614 | 0.99 | 1.25 | 1.66 | 1.2
pThr fixed | 1.54 | 0.962 | 0.449 | 1.08 | 0.958 | 0.981 | 0.838 | 0.952 | 0.96 | 1.03
pTyr fixed | 2.47 | 2.33 | 0.884 | 1.74 | 1.01 | 4.13 | 1.32 | 1.48 | 1.44 | 1.23

YES1, construct: Full length, human (from UniProt P07947)
relative phosphorylation
Conditions | at +1 | at +2 | at +3 | at +4 | at +5 | at -1 | at -2 | at -3 | at -4 | at -5
A fixed | 1.59 | 1.07 | 0.621 | 0.835 | 0.959 | 0.583 | 0.987 | 0.821 | 0.944 | 0.967
D fixed | 0.822 | 0.636 | 0.492 | 0.759 | 0.76 | 0.641 | 1.35 | 1.7 | 1.42 | 1.35
E fixed | 1.32 | 1.28 | 0.546 | 0.885 | 0.867 | 0.819 | 1.41 | 2.16 | 1.57 | 1.1
F fixed | 0.723 | 1.08 | 2.83 | 1.24 | 1.13 | 0.652 | 0.57 | 0.794 | 0.731 | 0.861
G fixed | 2.83 | 0.751 | 0.668 | 1.01 | 0.957 | 0.569 | 1.11 | 1.04 | 1.25 | 1.03
H fixed | 0.8 | 0.71 | 1 | 1.12 | 1.07 | 0.733 | 1.27 | 1.03 | 1.02 | 1.02
I fixed | 0.589 | 1.15 | 1.52 | 0.814 | 0.675 | 3.12 | 0.56 | 0.559 | 0.75 | 0.675
K fixed | 0.418 | 0.721 | 0.552 | 1.06 | 1.19 | 0.468 | 0.873 | 0.697 | 0.989 | 1.23
L fixed | 0.596 | 1.08 | 1.46 | 0.866 | 0.841 | 1.71 | 0.679 | 0.66 | 0.951 | 0.719
M fixed | 1.11 | 1.19 | 1.01 | 1.29 | 0.932 | 0.974 | 0.727 | 0.74 | 0.952 | 0.834
N fixed | 0.644 | 0.791 | 0.657 | 0.899 | 1.09 | 0.463 | 1.4 | 1.39 | 1.01 | 1.35
P fixed | 0.462 | 0.724 | 0.518 | 0.785 | 1.37 | 1.3 | 1.31 | 1.02 | 1.12 | 1.22
Q fixed | 0.897 | 1 | 0.599 | 1.17 | 1.01 | 0.521 | 1.18 | 1.15 | 1.09 | 1.1
R fixed | 0.538 | 0.951 | 0.913 | 1.36 | 1.51 | 0.399 | 0.95 | 0.76 | 1.01 | 1.16
S fixed | 1.13 | 1.3 | 0.672 | 0.938 | 1.07 | 0.518 | 1.31 | 1.08 | 0.846 | 0.949
T fixed | 1.08 | 1.44 | 0.908 | 1.01 | 1 | 1.51 | 0.968 | 0.862 | 0.727 | 0.908
V fixed | 0.892 | 1.3 | 1.37 | 0.842 | 0.749 | 2.26 | 0.663 | 0.558 | 0.857 | 0.783
W fixed | 1.54 | 0.815 | 1.67 | 1.11 | 0.821 | 0.766 | 0.69 | 0.979 | 0.762 | 0.755
pThr fixed | 1.21 | 1.33 | 0.497 | 0.667 | 0.674 | 1.07 | 1.1 | 1.13 | 1.07 | 1.17
pTyr fixed | 2.21 | 1.24 | 0.636 | 0.841 | 0.739 | 0.806 | 1.21 | 1.18 | 1.27 | 1.2

NTRK2, construct: aa455-end, human (from UniProt Q16620)
relative phosphorylation
Conditions | at +1 | at +2 | at +3 | at +4 | at +5 | at -1 | at -2 | at -3 | at -4 | at -5
A fixed | 1.42 | 0.697 | 0.136 | 0.894 | 0.979 | 0.684 | 0.962 | 0.876 | 0.971 | 0.87
D fixed | 0.407 | 0.696 | 0.42 | 0.788 | 1.01 | 2.06 | 1.2 | 1.25 | 1.11 | 1.21
E fixed | 0.546 | 0.786 | 0.308 | 0.894 | 0.831 | 0.84 | 1.28 | 1.36 | 1.33 | 1.1
F fixed | 1.81 | 1.35 | 1.88 | 1.09 | 1.16 | 1.12 | 0.959 | 1.15 | 1.32 | 1.06
G fixed | 0.747 | 0.491 | 0.569 | 1.18 | 1.05 | 0.45 | 1.02 | 0.864 | 0.996 | 0.954
H fixed | 1.23 | 0.808 | 0.871 | 1.11 | 1.01 | 1.36 | 1.13 | 1.19 | 1.05 | 1.09
I fixed | 1.58 | 1.27 | 2.41 | 0.847 | 0.742 | 1.31 | 0.745 | 0.661 | 0.825 | 0.894
K fixed | 0.257 | 0.893 | 0.387 | 0.97 | 0.979 | 0.259 | 0.841 | 0.732 | 0.752 | 1.05
L fixed | 1.05 | 1.1 | 2.12 | 0.898 | 0.989 | 1.38 | 1.03 | 0.878 | 0.921 | 0.923
M fixed | 1.61 | 1.17 | 1.63 | 1.02 | 0.922 | 0.958 | 0.809 | 0.982 | 0.82 | 0.979
N fixed | 0.37 | 0.919 | 0.467 | 0.774 | 0.928 | 2.13 | 1.22 | 1.26 | 0.921 | 1.13
P fixed | 0.261 | 0.723 | 0.785 | 1.06 | 1.23 | 0.772 | 0.886 | 0.789 | 1.1 | 0.884
Q fixed | 0.811 | 0.927 | 0.546 | 0.993 | 0.912 | 0.907 | 1.08 | 0.964 | 1.12 | 1.09
R fixed | 0.266 | 1.16 | 0.65 | 0.997 | 1.03 | 0.258 | 0.877 | 0.785 | 0.84 | 1.06
S fixed | 0.824 | 0.914 | 0.728 | 0.965 | 1.06 | 0.713 | 1.15 | 1.11 | 0.774 | 0.872
T fixed | 0.776 | 0.897 | 0.702 | 0.838 | 0.914 | 0.805 | 0.888 | 0.93 | 0.635 | 0.776
V fixed | 2.18 | 1.24 | 1.69 | 0.911 | 0.83 | 1.17 | 0.802 | 0.769 | 0.81 | 0.806
W fixed | 1.85 | 1.95 | 1.72 | 1.76 | 1.42 | 0.822 | 1.11 | 1.46 | 1.71 | 1.25
pThr fixed | 1.17 | 0.567 | 0.302 | 0.689 | 0.807 | 0.824 | 0.828 | 0.83 | 0.932 | 0.913
pTyr fixed | 1.77 | 1.3 | 0.567 | 1.03 | 0.776 | 3.47 | 1.13 | 1.22 | 1.26 | 0.986
